The values that follow come from the supplement of paper PMC5998384.

For data set [1], the system named is HeLa Kyoto. Put plainly: melting temperature (median over replicates), in situ; higher = more thermally stable.
Data set [2] has as its system HeLa Kyoto. Put plainly: solubility change mitosis vs G1/S (difference of NP-40 vs SDS log2 ratios) (log2 ratio difference); higher = more soluble in mitosis.
Data set [3] relates to HeLa Kyoto. Put plainly: solubility in G1/S (NP-40 vs SDS abundance) (log2 ratio); higher = more soluble. The following applies: cell cycle stage: G1/S.
The test system of data set [4] is HeLa Kyoto. Put plainly: thermal stability score vs G1/S (z-score of summed log2 fold changes over temperatures); higher = more thermally stable than in G1/S.
The mark [5] stands for this setting: cell cycle stage: early G1 (4.5 h after nocodazole release).
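Throughout, for melting temperature (median over replicates), in situ: HeLa Kyoto cells synchronized by double thymidine or nocodazole block, proteins quantified by TMT10plex mass spectrometry, three independent biological replicates.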
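Throughout, for solubility change mitosis vs G1/S (difference of NP-40 vs SDS log2 ratios): synchronized HeLa Kyoto cells (double thymidine block for G1/S, nocodazole release for mitosis), protein amounts in NP-40 versus SDS lysates quantified by mass spectrometry, three biological replicates.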
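Throughout, for solubility in G1/S (NP-40 vs SDS abundance): HeLa Kyoto cells arrested at G1/S by double thymidine block, proteins quantified by TMT10plex mass spectrometry in mild NP-40 versus SDS extracts, three biological replicates.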
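Throughout, for thermal stability score vs G1/S (z-score of summed log2 fold changes over temperatures): synchronized HeLa Kyoto cells, proteins quantified by TMT10plex mass spectrometry, three biological replicates, mitosis taken 0.5 h after nocodazole release, G1/S directly after double thymidine block.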

As to “MAAVSLRLGDLVWGKLGRYPPWPGKIVNPPKDLKKPRGKKCFFVKFFGTEDHAWIKVEQLKPYHAHKEEMIKINKGKRFQQAVDAVEEFLRRAKGKDQTSSHNSSDDKNRRNSSEERSRPNSGDEKRKLSLSEGKVKKNMGEGKKRVSSGSSERGSKSPLKRAQEQSPRKRGRPPKDEKDLTIPESSTVKGMMAGPMAAFKWQPTASEPVKDADPHFHHFLLSQTEKPAVCYQAITKKLKICEEETGSTSIQAADSTAVNGSITPTDKKIGFLGLGLMGSGIVSNLLKMGHTVTVWNRTAEKCDLFIQEGARLGRTPAEVVSTCDITFACVSDPKAAKDLVLGPSGVLQGIRPGKCYVDMSTVDADTVTELAQVIVSRGGRFLEAPVSGNQQLSNDGMLVILAAGDRGLYEDCSSCFQAMGKTSFFLGEVGNAAKMMLIVNMVQGSFMATIAEGLTLAQVTGQSQQTLLDILNQGQLASIFLDQKCQNILQGNFKPDFYLKYIQKDLRLAIALGDAVNHPTPMAAAANEVYKRAKALDQSDNDMSAVYRAYIH [GLYR1]”, the melting temperature in the data set on HeLa Kyoto [1] (cell cycle stage: G1/S) came to 53.3 °C; with HeLa Kyoto [1] (cell cycle stage: mitosis) it was 52.4 °C. Moreover, in the data set with HeLa Kyoto [2], the “solubility change mitosis (log2)” value amounted to 1.01. In the data set with HeLa Kyoto [3], the “solubility in G1/S (log2)” value was -1.74. Also, the thermal stability score with HeLa Kyoto [4] (setting [5]) was 1.22; in the data set on HeLa Kyoto [4] (cell cycle stage: mitosis) it was -1.43.

Turning to “MAAVVAATRWWQLLLVLSAAGMGASGAPQPPNILLLLMDDMGWGDLGVYGEPSRETPNLDRMAAEGLLFPNFYSANPLCSPSRAALLTGRLPIRNGFYTTNAHARNAYTPQEIVGGIPDSEQLLPELLKKAGYVSKIVGKWHLGHRPQFHPLKHGFDEWFGSPNCHFGPYDNKARPNIPVYRDWEMVGRYYEEFPINLKTGEANLTQIYLQEALDFIKRQARHHPFFLYWAVDATHAPVYASKPFLGTSQRGRYGDAVREIDDSIGKILELLQDLHVADNTFVFFTSDNGAALISAPEQGGSNGPFLCGKQTTFEGGMREPALAWWPGHVTAGQVSHQLGSIMDLFTTSLALAGLTPPSDRAIDGLNLLPTLLQGRLMDRPIFYYRGDTLMAATLGQHKAHFWTWTNSWENFRQGIDFCPGQNVSGVTTHNLEDHTKLPLIFHLGRDPGERFPLSFASAEYQEALSRITSVVQQHQEALVPAQPQLNVCNWAVMNWAPPGCEKLGKCLTPPESIPKKCLWSH [GALNS]”, the melting temperature with HeLa Kyoto [1] (cell cycle stage: G1/S) was 55.5 °C; in the data set on HeLa Kyoto [1] (cell cycle stage: mitosis), 57.8 °C. Further, the “solubility change mitosis (log2)” value in the data set on HeLa Kyoto [2] is -0.0581. Moreover, the “solubility in G1/S (log2)” value with HeLa Kyoto [3] is 0.789. The thermal stability score with HeLa Kyoto [4] (setting [5]) is -4.28; in the data set with HeLa Kyoto [4] (cell cycle stage: mitosis) it was -1.14.

For “MAAVVVAAAGGAGPAVLQVAGLYRGLCAVRSRALGLGLVSPAQLRVFPVRPGSGRPEGGADSSGVGAEAELQANPFYDRYRDKIQLLRRSDPAAFESRLEKRSEFRKQPVGHSRQGDFIKCVEQKTDALGKQSVNRGFTKDKTLSSIFNIEMVKEKTAEEIKQIWQQYFAAKDTVYAVIPAEKFDLIWNRAQSCPTFLCALPRREGYEFFVGQWTGTELHFTALINIQTRGEAAASQLILYHYPELKEEKGIVLMTAEMDSTFLNVAEAQCIANQVQLFYATDRKETYGLVETFNLRPNEFKYMSVIAELEQSGLGAELKCAQNQNKT [ATPAF1]”, the melting temperature was determined as 51.4 °C with HeLa Kyoto [1] (cell cycle stage: G1/S) and 51.5 °C in the data set with HeLa Kyoto [1] (cell cycle stage: mitosis). In addition, the “solubility change mitosis (log2)” value in the data set with HeLa Kyoto [2] is -0.00439. Moreover, the “solubility in G1/S (log2)” value with HeLa Kyoto [3] came out at 0.199. In addition, the thermal stability score in the data set on HeLa Kyoto [4] (setting [5]) came to 1.88; in the data set on HeLa Kyoto [4] (cell cycle stage: mitosis), 1.83.

With “MAAWGRRRLGPGSSGGSARERVSLSATDCYIVHEIYNGENAQDQFEYELEQALEAQYKYIVIEPTRIGDETARWITVGNCLHKTAVLAGTACLFTPLALPLDYSHYISLPAGVLSLACCTLYGISWQFDPCCKYQVEYDAYKLSRLPLHTLTSSTPVVLVRKDDLHRKRLHNTIALAALVYCVKKIYELYAV [TMEM11]”, the melting temperature was found to be 52.2 °C in the data set with HeLa Kyoto [1] (cell cycle stage: G1/S) and 51.4 °C in the data set with HeLa Kyoto [1] (cell cycle stage: mitosis). Further, the “solubility change mitosis (log2)” value in the data set on HeLa Kyoto [2] is -0.0939. Moreover, the “solubility in G1/S (log2)” value in the data set with HeLa Kyoto [3] is -0.0105. Further, the results for the thermal stability score in the data set with HeLa Kyoto [4] (setting [5]) and in the data set on HeLa Kyoto [4] (cell cycle stage: mitosis) were -0.391 and -1.34, respectively.

As for “MAAYLQWRRFVFFDKELVKEPLSNDGAAPGATPASGSAASKFLCLPPGITVCDSGRGSLVFGDMEGQIWFLPRSLQLTGFQAYKLRVTHLYQLKQHNILASVGEDEEGINPLVKIWNLEKRDGGNPLCTRIFPAIPGTEPTVVSCLTVHENLNFMAIGFTDGSVTLNKGDITRDRHSKTQILHKGNYPVTGLAFRQAGKTTHLFVVTTENVQSYIVSGKDYPRVELDTHGCGLRCSALSDPSQDLQFIVAGDECVYLYQPDERGPCFAFEGHKLIAHWFRGYLIIVSRDRKVSPKSEFTSRDSQSSDKQILNIYDLCNKFIAYSTVFEDVVDVLAEWGSLYVLTRDGRVHALQEKDTQTKLEMLFKKNLFEMAINLAKSQHLDSDGLAQIFMQYGDHLYSKGNHDGAVQQYIRTIGKLEPSYVIRKFLDAQRIHNLTAYLQTLHRQSLANADHTTLLLNCYTKLKDSSKLEEFIKKKSESEVHFDVETAIKVLRQAGYYSHALYLAENHAHHEWYLKIQLEDIKNYQEALRYIGKLPFEQAESNMKRYGKILMHHIPEQTTQLLKGLCTDYRPSLEGRSDREAPGCRANSEEFIPIFANNPRELKAFLEHMSEVQPDSPQGIYDTLLELRLQNWAHEKDPQVKEKLHAEAISLLKSGRFCDVFDKALVLCQMHDFQDGVLYLYEQGKLFQQIMHYHMQHEQYRQVISVCERHGEQDPSLWEQALSYFARKEEDCKEYVAAVLKHIENKNLMPPLLVVQTLAHNSTATLSVIRDYLVQKLQKQSQQIAQDELRVRRYREETTRIRQEIQELKASPKIFQKTKCSICNSALELPSVHFLCGHSFHQHCFESYSESDADCPTCLPENRKVMDMIRAQEQKRDLHDQFQHQLRCSNDSFSVIADYFGRGVFNKLTLLTDPPTARLTSSLEAGLQRDLLMHSRRGT [VPS11]”, the melting temperature with HeLa Kyoto [1] (cell cycle stage: G1/S) is 51.3 °C; with HeLa Kyoto [1] (cell cycle stage: mitosis) it was 49.9 °C. In addition, the “solubility change mitosis (log2)” value in the data set on HeLa Kyoto [2] was -0.106. Also, the “solubility in G1/S (log2)” value with HeLa Kyoto [3] was -0.142. The thermal stability score in the data set with HeLa Kyoto [4] (setting [5]) is -0.498; in the data set with HeLa Kyoto [4] (cell cycle stage: mitosis), -0.231.
